Experimental findings from article PMC8422075 (EMBO Molecular Medicine, 2021) are described below.

For this assay, the target named is T1, Human LAG3_(23–434) (human, UniProt P18627 23-434, fluorescently labelled (fluorophore and site not named)).
T1 construct: Used only in the microfluidic diffusional sizing; also called labelled LAG3; source: bought: BonOpusBio (#CJ91)
T1 sequence (looked up): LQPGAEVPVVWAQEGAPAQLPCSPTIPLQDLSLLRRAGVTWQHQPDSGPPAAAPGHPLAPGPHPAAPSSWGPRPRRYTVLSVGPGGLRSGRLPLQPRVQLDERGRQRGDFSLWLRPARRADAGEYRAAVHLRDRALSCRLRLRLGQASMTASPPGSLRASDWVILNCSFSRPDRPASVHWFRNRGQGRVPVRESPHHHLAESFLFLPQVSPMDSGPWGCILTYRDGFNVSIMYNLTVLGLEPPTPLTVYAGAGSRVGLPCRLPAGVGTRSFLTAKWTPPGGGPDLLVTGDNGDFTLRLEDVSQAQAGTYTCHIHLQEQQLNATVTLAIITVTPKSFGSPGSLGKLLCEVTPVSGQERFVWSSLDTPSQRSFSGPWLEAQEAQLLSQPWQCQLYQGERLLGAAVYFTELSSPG
In words: microfluidic diffusional sizing; fluorescently labelled protein (10 nM-10 µM) in solution, unlabelled ligand varied; PBS with 0.01% Tween-20; 60 min at room temperature; hydrodynamic radius read out; KD from Langmuir binding isotherm. To be noted: both partners purified.

B1: FGL1 Protein, Human, Recombinant (ligand, UniProt Q08830 23-312, looked up)
chain: LEDCAQEQMRLRAQVRLLETRVKQQQVKIKQLLQENEVQFLDKGDENTVIDLGSKRQYADCSEIFNDGYKLSGFYKIKPLQSPAEFSVYCDMSDGGGWTVIQRRSDGSENFNRGWKDYENGFGNFVQKHGEYWLGNKNLHFLTTQEDYTLKIDLADFEKNSRYAQYKNFKVGDEKNFYELNIGEYSGTAGDSLAGNFHPEVQWWASHQRMKFSTWDRDHDNYEGNCAEEDQSGWWFNRCHSANLNGVYYSGPYTAKTDNGIVWYTWHGWWYSLKSVVMKIRPNDFIPNVI
notes: Fibrinogen-like protein 1, human, recombinant; source: bought: Sino Biological (13484‐H08B)
For the molecule B1, the Kd worked out at 232 ± 79 nM.
